Legend:
[1] = molecular target: recombinant Antigen 1 (recombinant Ab1 target; recombinant integrin αvβ6 antigen); assay: saturation binding ELISA
[2] = molecular target: Antigen 1 (Ab1 target) expressed on HEK293 / HEK-293F cells; assay: saturation binding FACS, HEK293 cells
Antigen 1 (Ab1 target) expressed on HEK293 / HEK-293F cells, sequence (P06756 31-1048, chain 1 of 2): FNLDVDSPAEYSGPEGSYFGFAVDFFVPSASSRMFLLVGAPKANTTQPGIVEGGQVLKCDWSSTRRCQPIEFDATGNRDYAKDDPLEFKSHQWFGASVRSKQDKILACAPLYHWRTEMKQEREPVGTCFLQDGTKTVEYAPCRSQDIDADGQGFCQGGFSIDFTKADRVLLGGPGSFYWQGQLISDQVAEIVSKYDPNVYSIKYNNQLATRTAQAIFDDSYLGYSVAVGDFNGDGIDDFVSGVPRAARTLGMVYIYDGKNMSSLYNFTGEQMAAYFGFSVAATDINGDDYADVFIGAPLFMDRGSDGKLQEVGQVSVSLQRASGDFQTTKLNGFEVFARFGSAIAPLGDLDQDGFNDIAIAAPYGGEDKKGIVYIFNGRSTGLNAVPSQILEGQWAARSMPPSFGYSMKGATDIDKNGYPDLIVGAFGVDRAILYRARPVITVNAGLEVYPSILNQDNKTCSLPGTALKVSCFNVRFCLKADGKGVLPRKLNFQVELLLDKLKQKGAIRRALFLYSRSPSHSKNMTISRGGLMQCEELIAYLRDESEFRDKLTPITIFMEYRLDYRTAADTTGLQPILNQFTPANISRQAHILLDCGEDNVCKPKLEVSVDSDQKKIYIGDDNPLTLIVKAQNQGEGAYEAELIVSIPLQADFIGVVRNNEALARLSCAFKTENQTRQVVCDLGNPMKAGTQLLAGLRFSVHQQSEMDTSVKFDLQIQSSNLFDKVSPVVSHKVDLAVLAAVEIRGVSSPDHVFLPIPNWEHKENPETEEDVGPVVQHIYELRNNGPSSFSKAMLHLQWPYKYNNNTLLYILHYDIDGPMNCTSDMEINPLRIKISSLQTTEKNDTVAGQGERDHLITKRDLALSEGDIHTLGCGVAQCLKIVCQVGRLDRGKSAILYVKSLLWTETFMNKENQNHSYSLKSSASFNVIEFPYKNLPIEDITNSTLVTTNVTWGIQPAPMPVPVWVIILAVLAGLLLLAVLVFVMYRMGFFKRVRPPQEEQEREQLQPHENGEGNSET
Antigen 1 (Ab1 target) expressed on HEK293 / HEK-293F cells, sequence (P18564 22-788, chain 2 of 2, further chain): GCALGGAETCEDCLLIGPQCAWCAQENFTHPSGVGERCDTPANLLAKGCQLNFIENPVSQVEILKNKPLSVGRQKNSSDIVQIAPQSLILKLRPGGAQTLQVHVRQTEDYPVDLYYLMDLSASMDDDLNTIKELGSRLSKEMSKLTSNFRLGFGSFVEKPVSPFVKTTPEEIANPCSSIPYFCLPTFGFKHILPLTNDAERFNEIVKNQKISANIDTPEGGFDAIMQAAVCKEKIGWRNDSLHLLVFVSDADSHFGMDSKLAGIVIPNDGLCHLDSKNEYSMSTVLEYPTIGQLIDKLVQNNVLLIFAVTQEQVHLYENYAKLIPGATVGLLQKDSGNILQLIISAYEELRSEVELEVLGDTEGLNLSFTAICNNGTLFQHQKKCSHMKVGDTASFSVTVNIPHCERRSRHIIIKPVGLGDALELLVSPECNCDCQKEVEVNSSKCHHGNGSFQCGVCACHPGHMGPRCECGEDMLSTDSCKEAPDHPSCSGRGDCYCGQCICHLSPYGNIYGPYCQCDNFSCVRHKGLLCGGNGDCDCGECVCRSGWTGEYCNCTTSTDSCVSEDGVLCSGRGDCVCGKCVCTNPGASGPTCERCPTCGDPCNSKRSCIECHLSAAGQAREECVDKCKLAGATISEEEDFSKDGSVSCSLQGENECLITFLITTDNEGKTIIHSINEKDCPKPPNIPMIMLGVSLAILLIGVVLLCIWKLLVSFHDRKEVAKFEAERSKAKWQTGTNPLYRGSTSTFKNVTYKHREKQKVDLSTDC

recombinant Antigen 1 (recombinant Ab1 target; recombinant integrin αvβ6 antigen), sequence (P06756 31-992, chain 1 of 2): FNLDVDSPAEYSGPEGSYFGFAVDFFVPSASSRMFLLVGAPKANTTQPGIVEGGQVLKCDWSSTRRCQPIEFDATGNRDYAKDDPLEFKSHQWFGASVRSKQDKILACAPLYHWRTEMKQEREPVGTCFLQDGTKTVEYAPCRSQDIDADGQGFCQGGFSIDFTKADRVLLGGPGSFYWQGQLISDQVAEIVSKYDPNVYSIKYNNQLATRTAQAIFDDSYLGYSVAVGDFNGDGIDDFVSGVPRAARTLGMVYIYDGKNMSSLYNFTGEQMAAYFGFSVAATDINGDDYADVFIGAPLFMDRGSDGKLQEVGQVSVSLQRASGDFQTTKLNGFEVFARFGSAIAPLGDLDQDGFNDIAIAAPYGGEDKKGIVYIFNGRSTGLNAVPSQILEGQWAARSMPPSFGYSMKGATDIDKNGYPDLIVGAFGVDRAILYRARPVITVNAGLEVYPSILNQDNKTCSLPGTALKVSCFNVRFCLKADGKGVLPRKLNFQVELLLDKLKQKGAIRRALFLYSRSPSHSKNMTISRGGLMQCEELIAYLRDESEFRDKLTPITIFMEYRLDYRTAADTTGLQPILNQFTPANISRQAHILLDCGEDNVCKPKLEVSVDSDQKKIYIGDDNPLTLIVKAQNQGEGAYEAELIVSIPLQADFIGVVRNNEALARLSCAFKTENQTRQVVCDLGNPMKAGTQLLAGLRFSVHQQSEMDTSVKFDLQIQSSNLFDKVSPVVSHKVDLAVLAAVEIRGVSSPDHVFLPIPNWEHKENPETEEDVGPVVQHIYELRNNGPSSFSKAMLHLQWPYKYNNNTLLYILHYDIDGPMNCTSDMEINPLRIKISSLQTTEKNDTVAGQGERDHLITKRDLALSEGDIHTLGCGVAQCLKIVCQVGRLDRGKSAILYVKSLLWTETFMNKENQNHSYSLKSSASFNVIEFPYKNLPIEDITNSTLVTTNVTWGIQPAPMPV
recombinant Antigen 1 (recombinant Ab1 target; recombinant integrin αvβ6 antigen), sequence (P18564 22-709, chain 2 of 2, further chain): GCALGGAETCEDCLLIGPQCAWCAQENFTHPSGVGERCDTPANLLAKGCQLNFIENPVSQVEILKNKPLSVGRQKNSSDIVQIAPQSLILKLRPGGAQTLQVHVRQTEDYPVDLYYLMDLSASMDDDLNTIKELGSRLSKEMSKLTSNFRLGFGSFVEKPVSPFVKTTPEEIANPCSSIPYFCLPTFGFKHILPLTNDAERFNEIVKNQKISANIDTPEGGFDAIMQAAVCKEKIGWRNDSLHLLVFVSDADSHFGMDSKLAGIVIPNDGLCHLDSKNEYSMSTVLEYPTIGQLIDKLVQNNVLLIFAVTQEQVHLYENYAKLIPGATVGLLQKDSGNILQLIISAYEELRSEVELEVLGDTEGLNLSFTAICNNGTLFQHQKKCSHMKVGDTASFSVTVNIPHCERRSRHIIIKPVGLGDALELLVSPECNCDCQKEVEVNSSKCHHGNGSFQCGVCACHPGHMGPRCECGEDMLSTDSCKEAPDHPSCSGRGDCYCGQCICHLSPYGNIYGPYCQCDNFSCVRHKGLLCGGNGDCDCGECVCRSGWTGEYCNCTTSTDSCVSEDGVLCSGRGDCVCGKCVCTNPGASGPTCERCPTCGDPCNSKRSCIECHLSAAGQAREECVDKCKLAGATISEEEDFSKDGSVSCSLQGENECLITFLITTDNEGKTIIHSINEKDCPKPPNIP

Row | Binder | Binding Bmax (OD450) [1] | EC50 [1] | EC50 fold change from Ab1 [1] | EC50 [2] | EC50 fold change from Ab1 [2]
1 | Vel-IPV-Ab1 Coil 134 (antibody, part only; not given: Ab1 heavy and light chains, part only) heavy, part: QGASTSVDELQAEVDQLEDENYAKKTKVAQLRKKVEKLGSIPVSLRSG light, part: QGASTTVAQLEEKVKTLRAENYEIKSEVQRLEEQVAQLGSIPVSLRSG | 0.7 OD450 | 14.7 nM | 67 fold |  | 
2 | Vel-IPV-Ab1 Coil 121 (antibody, part only; not given: Ab1 heavy and light chains, part only) heavy, part: QGASTSVDELQAEVDQLEDENYAWKTKVAQLRKKVEKLGSIPVSLRSG light, part: QGASTTVAQLEEKVKTLRAENYEAKSEVQRLEEQVAQLGSIPVSLRSG | 0.9 OD450 | 140 nM | 562 fold | 132 nM | 943 fold
3 | Vel-IPV-Ab1 Coil 122 (antibody, part only; not given: Ab1 heavy and light chains, part only) heavy, part: QGASTSVDELQAEVDQLEDENYAYKTKVAQLRKKVEKLGSIPVSLRSG light, part: QGASTTVAQLEEKVKTLRAENYEAKSEVQRLEEQVAQLGSIPVSLRSG | 0.6 OD450 | 85.9 nM | 344 fold | 14.5 nM | 104 fold
4 | Vel-IPV-Ab1 Coil 103 (antibody, part only; not given: Ab1 heavy and light chains, part only) heavy, part: QGASTSVDELQAEVDQLEDENYAGKTKVAQLRKKVEKLGSIPVSLRSG light, part: QGASTTVAQLEEKVKTLRAENYEYKSEVQRLEEQVAQLGSIPVSLRSG | 0.6 OD450 | 75.3 nM | 260 fold | 2.1 nM | 15 fold
5 | Vel-IPV-Ab1 Coil 149 (antibody, part only; not given: Ab1 heavy and light chains, part only) heavy, part: QGASTSVDELQAEVDQLEDENYAIKTKIAQLRKKVEKLGSIPVSLRSG light, part: QGASTTVAQLEEKVKTLRAENYEAKSEVQRLEEQVAQLGSIPVSLRSG | 1.1 OD450 | 43.6 nM | 182 fold |  | 
6 | Vel-IPV-Ab1 Coil 116 (antibody, part only; not given: Ab1 heavy and light chains, part only) heavy, part: QGASTSVDELQAEVDQLEDENYAAKTKVAQLRKKVEKLGSIPVSLRSG light, part: QGASTTVAQLEEKVKTLRAENYEFKSEVQRLEEQVAQLGSIPVSLRSG | 0.7 OD450 | 368 nM | 1270 fold | 7.5 nM | 54 fold
7 | Vel-IPV-Ab1 Coil 115 (antibody, part only; not given: Ab1 heavy and light chains, part only) heavy, part: QGASTSVDELQAEVDQLEDENYAWKTKVAQLRKKVEKLGSIPVSLRSG light, part: QGASTTVAQLEEKVKTLRAENYEYKSEVQRLEEQVAQLGSIPVSLRSG | 1 OD450 | 184 nM | 633 fold | 152 nM | 1090 fold
8 | Vel-IPV-Ab1 Coil 110 (antibody, part only; not given: Ab1 heavy and light chains, part only) heavy, part: QGASTSVDELQAEVDQLEDENYAGKTKVAQLRKKVEKLGSIPVSLRSG light, part: QGASTTVAQLEEKVKTLRAENYEWKSEVQRLEEQVAQLGSIPVSLRSG | 1 OD450 | 548 nM | 1890 fold | 42.9 nM | 306 fold
9 | Vel-IPV-Ab1 Coil 117 (antibody, part only; not given: Ab1 heavy and light chains, part only) heavy, part: QGASTSVDELQAEVDQLEDENYAFKTKVAQLRKKVEKLGSIPVSLRSG light, part: QGASTTVAQLEEKVKTLRAENYEWKSEVQRLEEQVAQLGSIPVSLRSG | 1.1 OD450 | 322 nM | 1110 fold | 144 nM | 1030 fold
10 | Vel-IPV-Ab1 Coil 118 (antibody, part only; not given: Ab1 heavy and light chains, part only) heavy, part: QGASTSVDELQAEVDQLEDENYAFKTKVAQLRKKVEKLGSIPVSLRSG light, part: QGASTTVAQLEEKVKTLRAENYESKSEVQRLEEQVAQLGSIPVSLRSG | 0.8 OD450 | 45.2 nM | 181 fold | 16.8 nM | 120 fold
11 | Vel-IPV-Ab1 Coil 142 (antibody, part only; not given: Ab1 heavy and light chains, part only) heavy, part: QGASTSVDELQAEVDQLEDENYALKTKKAQLRKKVEKLGSIPVSLRSG light, part: QGASTTVAQLEEKVKTLRAENYELKSEIQRLEEQVAQLGSIPVSLRSG | 1.8 OD450 | 101 nM | 461 fold |  | 
12 | Vel-IPV-Ab1 Coil 151 (antibody, part only; not given: Ab1 heavy and light chains, part only) heavy, part: QGASTSVDELQAEVDQLEDENYALKTKLAQLRKKVEKLGSIPVSLRSG light, part: QGASTTVAQLEEKVKTLRAENYELKSELQRLEEQVAQLGSIPVSLRSG | 1.5 OD450 | 198 nM | 827 fold |  | 
13 | Vel-IPV-Ab1 Coil 138 (antibody, part only; not given: Ab1 heavy and light chains, part only) heavy, part: QGASTSVDELQAEVDQLEDENYALKTKLAQLRKKVEKLGSIPVSLRSG light, part: QGASTTVAQLEEKVKTLRAENYELKSEIQRLEEQVAQLGSIPVSLRSG | 1.8 OD450 | 117 nM | 532 fold |  | 
14 | Vel-IPV-Ab1 Coil 145 (antibody, part only; not given: Ab1 heavy and light chains, part only) heavy, part: QGASTSVDELQAEVDQLEDENYALKTKIAQLRKKVEKLGSIPVSLRSG light, part: QGASTTVAQLEEKVKTLRAENYEAKSEVQRLEEQVAQLGSIPVSLRSG | 1.2 OD450 | 69.6 nM | 290 fold |  | 
15 | Vel-IPV-Ab1 Coil 106 (antibody, part only; not given: Ab1 heavy and light chains, part only) heavy, part: QGASTSVDELQAEVDQLEDENYAYKTKVAQLRKKVEKLGSIPVSLRSG light, part: QGASTTVAQLEEKVKTLRAENYEFKSEVQRLEEQVAQLGSIPVSLRSG | 0.8 OD450 | 190 nM | 657 fold | 38.4 nM | 274 fold
16 | Vel-IPV-Ab1 Coil 124 (antibody, part only; not given: Ab1 heavy and light chains, part only) heavy, part: QGASTSVDELQAEVDQLEDENYASKTKVAQLRKKVEKLGSIPVSLRSG light, part: QGASTTVAQLEEKVKTLRAENYEWKSEVQRLEEQVAQLGSIPVSLRSG | 0.6 OD450 | 129 nM | 517 fold | 14.1 nM | 10 fold
17 | Vel-IPV-Ab1 Coil 111 (antibody, part only; not given: Ab1 heavy and light chains, part only) heavy, part: QGASTSVDELQAEVDQLEDENYAGKTKVAQLRKKVEKLGSIPVSLRSG light, part: QGASTTVAQLEEKVKTLRAENYEFKSEVQRLEEQVAQLGSIPVSLRSG | 1.3 OD450 | 619 nM | 2140 fold | 9.1 nM | 65 fold
18 | Vel-IPV-Ab1 Coil 114 (antibody, part only; not given: Ab1 heavy and light chains, part only) heavy, part: QGASTSVDELQAEVDQLEDENYAWKTKVAQLRKKVEKLGSIPVSLRSG light, part: QGASTTVAQLEEKVKTLRAENYEFKSEVQRLEEQVAQLGSIPVSLRSG | 1.1 OD450 | 278 nM | 959 fold | 59.3 nM | 423 fold
19 | Vel-IPV-Ab1 Coil 107 (antibody, part only; not given: Ab1 heavy and light chains, part only) heavy, part: QGASTSVDELQAEVDQLEDENYASKTKVAQLRKKVEKLGSIPVSLRSG light, part: QGASTTVAQLEEKVKTLRAENYEFKSEVQRLEEQVAQLGSIPVSLRSG | 0.6 OD450 | 133 nM | 458 fold | 2.8 nM | 20 fold
20 | Vel-IPV-Ab1 Coil 137 (antibody, part only; not given: Ab1 heavy and light chains, part only) heavy, part: QGASTSVDELQAEVDQLEDENYAVKTKVAQLRKKVEKLGSIPVSLRSG light, part: QGASTTVAQLEEKVKTLRAENYELKSEVQRLEEQVAQLGSIPVSLRSG | 1.2 OD450 | 128 nM | 584 fold |  | 

Reference: patent publication US20240376200A1 (Seagen, published 2024)
